Laboratory results reported in the supplement of paper PMC7125110.
± gives the standard error. For part of these data: Variants at the floor of the assay were thinned out.

B1: glmS ribozyme (parent)
chain: AUAAAAGCGCCAGAACUACAGAAAUGUAGUUGACGAGGAGGAGGUUUAUCGAAUUUUCGGCGGAUGCCUCCAAA

How the values were obtained:
Settings in all cases: with glucosamine-6-phosphate
[1] = variants of: B1; assay: kcat; higher = faster cleavage; RNA array
How it was run: (§1)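 Over ~14 h at 37 °C, tiles were imaged as glucosamine-6-phosphate (40 μM to 10 mM) in HEPES/KCl/Mg(OAc)2 buffer flowed across sequenced MiSeq chips. The chips carried barcoded ribozyme variants transcribed in situ by E. coli RNA polymerase and tracked with a hybridised Cy3 probe. After normalisation to baseline and to non-cleaving reference variants, one- or two-exponential decay fits of per-tile medians gave kobs. kcat and KM followed from weighted Michaelis–Menten fits across concentrations.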

[2] = variants of: B1; assay: self-cleavage kobs at 40 uM GlcN6P; higher = faster cleavage; RNA array
How it was run: as §1

[3] = variants of: B1; assay: self-cleavage kobs at 160 uM GlcN6P; higher = faster cleavage; RNA array
How it was run: as §1

[4] = variants of: B1; assay: self-cleavage kobs at 640 uM GlcN6P; higher = faster cleavage; RNA array
How it was run: as §1

[5] = variants of: B1; assay: self-cleavage kobs at 2500 uM GlcN6P; higher = faster cleavage; RNA array
How it was run: as §1

[6] = variants of: B1; assay: KM; higher = weaker cofactor use; RNA array
How it was run: as §1

[7] = variants of: B1; assay: self-cleavage kobs at 10000 uM GlcN6P; higher = faster cleavage; RNA array
How it was run: as §1

Row | Variant | kcat [1] [s⁻¹] | self-cleavage kobs at 40 uM GlcN6P [2] [s⁻¹] | self-cleavage kobs at 160 uM GlcN6P [3] [s⁻¹] | self-cleavage kobs at 640 uM GlcN6P [4] [s⁻¹] | self-cleavage kobs at 2500 uM GlcN6P [5] [s⁻¹] | KM [6] [µM] | self-cleavage kobs at 10000 uM GlcN6P [7] [s⁻¹]
1 | AUAAAAGCGCCAGAACUACAGAAAUGUAGUUGACGAGGAGGAGGUUGAUCCAAUUUCCGGCGGAUGCUUCCAAA [U47G G51C U57C C68U] | 1.54e-05 ± 3.7e-06 | < 1e-05 | – | – | – | – | –
2 | AUAAAAGCGCCAGAACUACAGAAAUGUAGUUGACGAGGAGGAGGUUUAUCGAAUUUGCGGCGGAUGCGUCCAAA [U57G C68G] | 4.47e-05 ± 1.1e-05 | 2.48e-05 ± 1.2e-05 | 4.02e-05 ± 1.5e-05 | 4.72e-05 ± 1.4e-05 | 5.88e-05 ± 1.3e-05 | – | –
3 | AUAAAAGCGCCAGAACUACAGAAAUGUAGUUGACGAGGAGGAGGUUUAUCGAAUUCUCGGCGGGUGCCUCCAAA [U56C A64G] | 0.000167 ± 1.1e-05 | – | – | – | 8.52e-05 ± 2.8e-05 | 2690 ± 560 | 0.000131 ± 2e-05
4 | AUAAAAGCGCCAGAACUACAGAAAUGUAGUUGACGAGGAGGAGGUUUAUCGACUUUUCGGCGGAUGCCUGCAAA [A53C C70G] | 8.19e-05 ± 3.8e-06 | – | – | 5.26e-05 ± 9.1e-06 | 6.51e-05 ± 9.9e-06 | 438 ± 110 | 7.97e-05 ± 7.3e-06
5 | AUAAAAGCGCCAGAACUACAGAAAUGUAGUUGACGAGGAGGAGGUUUAUCGAAUUUUCGGCGGAUCCCUGCAAA [G66C C70G] | 0.000116 ± 4e-06 | – | 3.35e-05 ± 1.2e-05 | 6.38e-05 ± 8.2e-06 | 9.88e-05 ± 1.2e-05 | 490 ± 56 | 0.000111 ± 1.5e-05
6 | AUAAACGCGCCAGAACUACAGAAAUGUAAUUGACGAGGAGGAGGUUUAUCGAAUUUGCGGCGGAUGCCGCCAAA [A6C G29A U57G U69G] | 3.11e-05 ± 1.2e-05 | – | – | – | – | – | –
7 | AUAAAAGCGCCAGAACUACAGAAAUGUAGUUGACGAGGAGGAGGUUUAUCGAUUUUUCGACGGAUGCCUACAAA [A53U G60A C70A] | 1.78e-05 ± 4.4e-06 | – | – | – | – | – | –
8 | AUAAAAGCGCCAGAACUACAGAAAUGUAGUUGACGAGGAGGAGGUUUAUCGAAUUUUCGGCCGAUGCCACCAAA [G62C U69A] | 1.17e-05 ± 3.8e-06 | – | – | – | – | – | –
9 | AUAAAAGCGCCGGAACUACAGAAAUGUAGUUGACGAGGAGGAGGUUUAUCGUAUUUUCGGCGGAUGCCUCCAAA [A12G A52U] | < 1e-05 | < 1e-05 | – | < 1e-05 | – | – | –
10 | AUAAAAGCGCCAGAACUACAGAAAUGUAGUUGACGAGGAGGAGGUUUAUCGAAUUUUCGGCGGAUGUCUGCAAA [C67U C70G] | 2.32e-05 ± 6.8e-06 | – | – | 2.59e-05 ± 9e-06 | 2.88e-05 ± 6.7e-06 | – | –
11 | AUAAAAGCGCUAGAACUACAGAAAUGUAGUUGACGACGAGGAGGUUUAUCGAAUUUUCGGCGGAUGCCUCCAAA [C11U G37C] | 1.18e-05 ± 3.2e-06 | – | – | – | – | – | –
12 | AUAAAAGCGCCAGAACUACAGAAAUGUAGUUGACGAGGAGGAGGUUUAUCGAAUGUUCGGCGGAUGCCACCAAA [U55G U69A] | 0.000144 ± 3.5e-05 | 4.44e-05 ± 1.1e-05 | 7.03e-05 ± 9.5e-06 | 0.00015 ± 1.9e-05 | 0.00021 ± 2.3e-05 | – | 9.83e-05 ± 1.7e-05
13 | AUAAAAGCGCCAGAACUACAGAAAUGUAGUUGAUGAGGAGGAGGUUUAUCGAAUUUUCGGCGCAUGCCUCCAAA [C34U G63C] | < 1e-05 | – | – | < 1e-05 | < 1e-05 | – | –
14 | AUAAAAGCGCCAGAACUACAGAAAUGUAGUUUACGAGGAGGAGGUUUAUCGAAUUUUCGGCGGAUGGCUCCAAA [G32U C67G] | 0.000119 ± 1.3e-05 | – | – | 4.87e-05 ± 1.6e-05 | 6.69e-05 ± 1.2e-05 | 1520 ± 570 | 0.000107 ± 1.2e-05
15 | AUAAAAGCGCCAGAACUACAGAAAUGUAGUUGACGAGGAGGAGGUUUAUCGAAAUUUCGGCGGAGGCCUCCAAA [U54A U65G] | 0.00357 ± 0.0014 | 5.78e-05 ± 9.8e-06 | 0.000211 ± 3.9e-05 | 0.000927 ± 0.00015 | 0.001 ± 0.00025 | – | 0.00358 ± 0.00043
16 | AUAAAAGCGCCAGAACUACAGAAAUGUAGUUGACGAGGAGGAGGUUUAUCGAAUUUUGGGCGGAUGCCUCUAAA [C58G C71U] | 7.95e-05 ± 3.4e-06 | – | – | 4.63e-05 ± 1.1e-05 | 7.26e-05 ± 8.7e-06 | 402 ± 99 | 7.36e-05 ± 9e-06
17 | AUAAAAGCGCCAGAACUACAGAAAUGUAGUUGACGAGGAGGAGGUUUAUCGAAUUUUCGGCGGAUGCCCUCAAA [U69C C70U] | 0.000681 ± 0.00015 | 5.3e-05 ± 1.3e-05 | 0.000108 ± 2.4e-05 | 0.000254 ± 3.7e-05 | 0.000524 ± 7.1e-05 | 854 ± 350 | 0.000743 ± 0.00018
18 | AUAAAAGCGCCAGAACUACAGAAAUGUAGUUGACGAGGAUGAGGUUAAUCGAAUUUUCGGCGGAUGCCUCCAAA [G40U U47A] | 0.00153 ± 0.00048 | 6.16e-05 ± 2.8e-05 | 0.000114 ± 2.9e-05 | 0.000565 ± 0.0002 | 0.00134 ± 0.00045 | 1680 ± 730 | 0.00115 ± 0.00037
19 | AUAAAAGCGCCAGAACUACAGAAAUGUAGUUGACGAGGAGGAGGUUUAUCGAAUUAUCGGCGGAUCCCUCCAAA [U56A G66C] | 0.000237 ± 5.7e-05 | – | – | 0.000107 ± 1.6e-05 | 0.000132 ± 3.9e-05 | – | 0.000238 ± 4.6e-05
